# Measurements published in IntAct's records for PubMed 22416126.
# B1: Non-POU domain-containing octamer-binding protein (Homo sapiens), Q15233 (parent)
# chain: MQSNKTFNLEKQNHTPRKHHQHHHQQQHHQQQQQQPPPPPIPANGQQASSQNEGLTIDLKNFRKPGEKTFTQRSRLFVGNLPPDITEEEMRKLFEKYGKAGEVFIHKDKGFGFIRLETRTLAEIAKVELDNMPLRGKQLRVRFACHSASLTVRNLPQYVSNELLEEAFSVFGQVERAVVIVDDRGRPSGKGIVEFSGKPAARKALDRCSEGSFLLTTFPRPVTVEPMDQLDDEEGLPEKLVIKNQQFHKEREQPPRFAQPGSFEYEYAMRWKALIEMEKQQQDQVDRNIKEAREKLEMEMEAARHEHQVMLMRQDLMRRQEELRRMEELHNQEVQKRKQLELRQEEERRRREEEMRRQQEEMMRRQQEGFKGTFPDAREQEIRMGQMAMGGAMGINNRGAMPPAPVPAGTPAPPGPATMMPDGTLGLTPPTTERFGQAATMEGIGAIGGTPPAFNRAAPGAEFAPNKRRRY
# partner: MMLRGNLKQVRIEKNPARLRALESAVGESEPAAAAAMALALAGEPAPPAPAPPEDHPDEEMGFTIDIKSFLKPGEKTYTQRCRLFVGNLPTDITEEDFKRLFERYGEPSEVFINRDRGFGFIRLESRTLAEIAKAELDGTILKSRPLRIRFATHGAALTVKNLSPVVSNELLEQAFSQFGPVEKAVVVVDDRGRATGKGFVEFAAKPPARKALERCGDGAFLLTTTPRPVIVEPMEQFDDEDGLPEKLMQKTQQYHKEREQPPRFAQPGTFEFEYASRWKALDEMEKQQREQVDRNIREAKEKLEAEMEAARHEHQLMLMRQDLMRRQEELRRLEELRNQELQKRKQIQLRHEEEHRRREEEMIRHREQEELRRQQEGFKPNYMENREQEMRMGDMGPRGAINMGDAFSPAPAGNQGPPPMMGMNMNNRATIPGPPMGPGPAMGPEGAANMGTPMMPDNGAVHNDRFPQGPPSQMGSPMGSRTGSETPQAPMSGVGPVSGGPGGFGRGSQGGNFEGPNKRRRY
# B2: Paraspeckle component 1 (Homo sapiens), Q8WXF1-1 (parent)
# chain: B1 partner
# partner: B1 chain
# Variants of: B1
# Conditions: with PSPC1, Q8WXF1-1
row,effect of a mutation on the interaction,Variant
1,decreasing interaction strength,MQSNKTFNLEKQNHTPRKHHQHHHQQQHHQQQQQQPPPPPIPANGQQASSQNEGLTIDLKNFRKPGEKTFTQRSRLFVGNLPPDITEEEMRKLFEKYGKAGEVFIHKDKGFGFIRLETRTLAEIAKVELDNMPLRGKQLRVRFACHSASLTVRNLPQYVSNELLEEAFSVFGQVERAVVIVDDRGRPSGKGIVEFSGKPAARKALDRCSEGSFLLTTFPRPVTVEPMDQLDDEEGLPEKLVIKNQQFHKEREQPPRFAQPGSFEYEAAMRAKALIEMEKQQQDQVDRNIKEAREKLEMEMEAARHEHQVMLMRQDLMRRQEELRRMEELHNQEVQKRKQLELRQEEERRRREEEMRRQQEEMMRRQQEGFKGTFPDAREQEIRMGQMAMGGAMGINNRGAMPPAPVPAGTPAPPGPATMMPDGTLGLTPPTTERFGQAATMEGIGAIGGTPPAFNRAAPGAEFAPNKRRRY [Y267A;W271A]

# Variants of: B2
# Conditions: with nono_human NONO
row,effect of a mutation on the interaction,Variant
1,decreasing interaction strength,MMLRGNLKQVRIEKNPARLRALESAVGESEPAAAAAMALALAGEPAPPAPAPPEDHPDEEMGFTIDIKSFLKPGEKTYTQRCRLFVGNLPTDITEEDFKRLFERYGEPSEVFINRDRGFGFIRLESRTLAEIAKAELDGTILKSRPLRIRFATHGAALTVKNLSPVVSNELLEQAFSQFGPVEKAVVVVDDRGRATGKGFVEFAAKPPARKALERCGDGAFLLTTTPRPVIVEPMEQFDDEDGLPEKLMQKTQQYHKEREQPPRFAQPGTFEFEAASRAKALDEMEKQQREQVDRNIREAKEKLEAEMEAARHEHQLMLMRQDLMRRQEELRRLEELRNQELQKRKQIQLRHEEEHRRREEEMIRHREQEELRRQQEGFKPNYMENREQEMRMGDMGPRGAINMGDAFSPAPAGNQGPPPMMGMNMNNRATIPGPPMGPGPAMGPEGAANMGTPMMPDNGAVHNDRFPQGPPSQMGSPMGSRTGSETPQAPMSGVGPVSGGPGGFGRGSQGGNFEGPNKRRRY [Y275A;W279A]
